According to US20250339493A1, “METHODS OF USING NEUREGULIN-4 COMPOUNDS” (priority 2022, published 2025):

Key:
[1] = Single-ascending dose study in healthy participants: plasma pharmacokinetics after single SC or IV dose; set-up: species or system human; settings: in vivo
From the text: A multiple-center, investigator- and participant-blind, randomized, placebo-controlled, single-ascending dose study is designed to evaluate the safety and tolerability of a single subcutaneous (SC) dose or an intravenous (IV) dose of the NRG4 compound of SEQ ID NO:1 in healthy participants. Cohorts 1-5 are intended to receive a single SC dose of the NRG4 compound or placebo. Cohort 6 is used to assess a single IV injection of the NRG4 compound. This cohort is to enable an estimation of absolute bioavailability of the NRG4 compound. Doses for the cohorts are as follows: • Cohort 1:1 mg (6 participants NRG4 compound; 2 participants placebo)· • Cohort 2:3 mg (6 participants NRG4 compound; 2 participants placebo). • Cohort 3:10 mg (6 participants NRG4 compound; 2 participants placebo). • Cohort 4:30 mg (6 participants NRG4 compound; 2 participants placebo). • Cohort 5:60 mg (6 participants NRG4 compound; 2 participants placebo). • Cohort 6 (8 participants 3 mg NRG4 compound IV) 48 participants received a dose of NRG4 compound or placebo, with eight males, and 40 females. The age range of the participants was 25 to 65 years. A stable dose of antihypertensive medication, with the exception of beta blockers, and lipid lowering medication were allowed. The study intervention was administered either via a single SC injection into the lower abdominal region or as an IV bolus from a syringe to an indwelling venous catheter. Study interventions administered are summarized in Table 2: On Day 1, participants receive a single dose of their assigned treatment (either NRG4 compound or placebo) for first 5 cohorts and NRG4 compound for the final IV cohort. PK sampling and safety assessments, including AEs, medical assessments, clinical laboratory tests, vital signs, and ECGs, were performed at predefined times through discharge from the CRU on Day 4. Dose escalated cohorts were only initiated after satisfactory review of the safety results from all participants receiving NRG4 compound in the preceding cohort through Day 4. Participants returned to the CRU for outpatient visits on Days 7 and 15 for PK, safety, and immunogenicity assessments, as appropriate. Follow-up visit for PK, safety, and immunogenicity monitoring occurred on Day 29. At the visits and times specified in the protocol venous blood samples of approximately 3 mL each were collected to determine the plasma concentrations of NRG4 compound. PK parameter estimates for NRG4 compound were calculated by standard noncompartmental methods of analysis using Phoenix WinNonlin Version 8.1. […] The PK parameters were summarized and listed separately for SC and IV-dosed cohorts. The plasma concentrations of the NRG4 compound were plotted and summarized. The dose proportionality for SC doses of NRG4 compound were assessed for the log-transformed Cmax, AUC (0-∞), and AUC (0-tlast) using a power model (where log-dose acted as an explanatory variable) to estimate ratios of dose normalized geometric means and corresponding 90% CIs. The estimated ratio of dose-normalized geometric means of PK parameters between the highest and lowest doses were used to assess dose proportionality.

[2] = Single-ascending dose study in healthy participants: safety and tolerability; type: in vivo
From the text: A multiple-center, investigator- and participant-blind, randomized, placebo-controlled, single-ascending dose study is designed to evaluate the safety and tolerability of a single subcutaneous (SC) dose or an intravenous (IV) dose of the NRG4 compound of SEQ ID NO:1 in healthy participants. Cohorts 1-5 are intended to receive a single SC dose of the NRG4 compound or placebo. Cohort 6 is used to assess a single IV injection of the NRG4 compound. This cohort is to enable an estimation of absolute bioavailability of the NRG4 compound. Doses for the cohorts are as follows: • Cohort 1:1 mg (6 participants NRG4 compound; 2 participants placebo)· • Cohort 2:3 mg (6 participants NRG4 compound; 2 participants placebo). • Cohort 3:10 mg (6 participants NRG4 compound; 2 participants placebo). • Cohort 4:30 mg (6 participants NRG4 compound; 2 participants placebo). • Cohort 5:60 mg (6 participants NRG4 compound; 2 participants placebo). • Cohort 6 (8 participants 3 mg NRG4 compound IV)
48 participants received a dose of NRG4 compound or placebo, with eight males, and 40 females. The age range of the participants was 25 to 65 years. A stable dose of antihypertensive medication, with the exception of beta blockers, and lipid lowering medication were allowed. […]

[3] = Rat continuous SC infusion toxicology study; type: in vivo
Procedure: (§1) Table 3 presents the estimated margins of safety of 21 mg/day infused for 24 hours and 140 mg/day infused for 96 hours doses of NRG4 compound. The anticipated therapeutic benefit for patients with HFrEF outweighs any potential risks identified in the nonclinical safety profile.

[4] = Cynomolgus continuous SC infusion toxicology study; type: in vivo, cynomolgus monkey
Procedure: as §1

[5] = rat non-repro NOAEL (F), 16.1 mg/kg/day, 96 h SC infusion
[6] = rat, in vivo, sc, 1.6 mg/kg/day
[7] = cynomolgus monkey, in vivo, sc, 156 mg/kg/day
[8] = monkey NOAEL (M + F), 12.6 mg/kg/day, 96 h SC infusion

## NRG4 compound: NRG4 compound comprising amino acid sequence SEQ ID NO:1: GGGGSGHEEPCGPSHKSFCLNGGLCYQIPTIPSPFCRCVENYTGARCEKVEL; selective HER4 binding (GGGGSGHEEPCGPSHKSFCLNGGLCYQIPTIPSPFCRCVENYTGARCEKVFL)
[1]
  geometric mean F (absolute bioavailability): 104%
[1]; iv
  geometric mean CL: 6.01 L/h
  geometric mean Vss: 13.6 L
  geometric mean Vz: 22.0 L
  geometric mean t1/2: 2.53 h
[1]; sc
  dose proportionality of AUC (0-0): slightly higher than proportional
  dose proportionality of Cmax: slightly less than proportional
  dose proportionality of PK: increase approximately proportionally
  geometric mean CL/F: 4.88 to 6.05 L/h
  geometric mean Vz/F: 19.2 to 24.3 L
  geometric mean t1/2: 2.45 h
  mean CL/F: 4.9 to 6.05 L/h
  mean half-life: 2.20 to 3.21 h
  median tmax: 2.0 h
  tmax range: 1.00 to 4.08 h
  t½: 2.5 to 3 h
[2]; in vivo
  overall safety and tolerability: safe and well-tolerated
[2]; single SC 1 to 60 mg or IV 3 mg, healthy participants
  deaths, serious adverse events, discontinuations due to adverse events: no deaths, serious adverse events (SAEs) or discontinuations due to adverse events were reported
[3]; [5]
  AUC0-t: 53.3 µg·h/mL
  Cave, ss: 540 ng/mL
[3]; rat, female, continuous SC infusion 96 h
  Non-repro NOAEL (F) dose: 16.1 mg/kg/day
[3]; [6]
  AUC0-t: 7.17 µg·h/mL
  Cave, ss: 72 ng/mL
[3]; rat, male, continuous SC infusion 96 h
  LOAEL (M) dose: 1.6 mg/kg/day
[4]; cynomolgus monkey, in vivo
  Cave, ss Multiple, Max Dose: 16.9
  Cave, ss Multiple, Start Dose: 109
[4]; [7]
  AUC0-t: 1840 µg·h/mL
  Cave, ss: 18600 ng/mL
[4]; [8]
  AUC0-t: 148 µg·h/mL
  Cave, ss: 1490 ng/mL
[4]; monkey, continuous SC infusion 96 h
  NOAEL (M + F) dose: 12.6 mg/kg/day
